Measured values taken from patent publication US20080292632A1 (US Dept. of Health and Human Services, published 2008).
Read-outs that look alike come from different tables or passages of the source.

Tests used:
[1] = biological target: T1, IRTA2 extracellular domain-Fc fusion protein (human, UniProt Q96RD9 16-851); test: equilibrium ELISA (Friguet)
T1 construct: extracellular domain; also called IRTA2-Fc; IRTA2-HFc; not shown: human IgG1 hinge and Fc
T1 sequence (looked up): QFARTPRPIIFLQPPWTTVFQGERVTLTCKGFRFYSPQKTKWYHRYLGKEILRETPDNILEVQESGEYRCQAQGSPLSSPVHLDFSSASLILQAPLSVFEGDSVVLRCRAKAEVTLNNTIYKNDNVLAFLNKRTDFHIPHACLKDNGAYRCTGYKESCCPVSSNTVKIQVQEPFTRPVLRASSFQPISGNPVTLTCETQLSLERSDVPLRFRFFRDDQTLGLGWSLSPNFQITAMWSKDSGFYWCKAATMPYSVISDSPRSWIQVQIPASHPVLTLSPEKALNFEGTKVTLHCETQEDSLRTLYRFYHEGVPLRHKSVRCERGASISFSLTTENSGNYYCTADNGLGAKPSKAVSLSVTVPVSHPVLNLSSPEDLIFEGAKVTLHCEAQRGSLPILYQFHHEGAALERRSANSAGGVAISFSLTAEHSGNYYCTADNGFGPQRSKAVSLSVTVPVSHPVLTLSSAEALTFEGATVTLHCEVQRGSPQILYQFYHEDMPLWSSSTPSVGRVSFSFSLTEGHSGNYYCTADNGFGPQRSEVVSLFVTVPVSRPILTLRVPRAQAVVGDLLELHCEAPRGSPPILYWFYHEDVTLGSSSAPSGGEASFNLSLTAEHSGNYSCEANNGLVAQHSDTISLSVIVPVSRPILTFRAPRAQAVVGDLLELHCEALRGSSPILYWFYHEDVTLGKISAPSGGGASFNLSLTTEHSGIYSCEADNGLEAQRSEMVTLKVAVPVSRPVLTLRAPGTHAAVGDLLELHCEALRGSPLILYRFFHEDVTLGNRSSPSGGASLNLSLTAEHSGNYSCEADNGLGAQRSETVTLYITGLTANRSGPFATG
Method: (§1) ELISA. In a typical indirect ELISA for the screening of hybridomas, microtiter plates (MaxiSorp; Nalge Nunc, Rochester, N.Y.) were coated with 100 ng/50 μl/well of goat anti-human IgG in phosphate buffered saline (PBS) for 2 hours at room temperature. Next, 50 ng/100 μl/well of IRTA2-Fc in blocking buffer (25% DMEM, 5% FBS, 25 mM HEPES, 0.5% bovine serum albumin, 0.1% sodium azide in PBS) was added to each well and incubated for 2 hours at room temperature. After washing with PBS containing 0.05% Tween 20, 50 μl of the hybridoma supernatants were added and incubated for 2 hours at room temperature. After washing, the bound MAbs were detected by a 2-hour incubation with horseradish peroxidase (HRP)-labeled goat anti-mouse IgG (Jackson ImmunoResearch, Grove, Pa.) followed by tetramethylbenzidine (TMB) substrate kit (Pierce, Rockford, Ill.). In some experiments, other IRTA-Fc fusion proteins were used instead of IRTA2-Fc.
(§2) Affinity Determination. Affinities (dissociation constant, Kd) of the anti-IRTA2 MAbs to IRTA2-Fc were determined by ELISA as previously described (Friguet et al., J Immunol Methods 77:305-19, 1985). Briefly, each MAb was incubated with various concentrations of IRTA2-Fc at room temperature for 20 hours to reach equilibrium; then the amount of MAb that remains unbound at equilibrium was measured by the indirect ELISA as described above.

[2] = biological target: T2, CD30 on transfected 293T cells (human, UniProt P28908 19-595); test: cell-ELISA, formalin-fixed cells
T2 construct: whole, on cells
T2 sequence (looked up): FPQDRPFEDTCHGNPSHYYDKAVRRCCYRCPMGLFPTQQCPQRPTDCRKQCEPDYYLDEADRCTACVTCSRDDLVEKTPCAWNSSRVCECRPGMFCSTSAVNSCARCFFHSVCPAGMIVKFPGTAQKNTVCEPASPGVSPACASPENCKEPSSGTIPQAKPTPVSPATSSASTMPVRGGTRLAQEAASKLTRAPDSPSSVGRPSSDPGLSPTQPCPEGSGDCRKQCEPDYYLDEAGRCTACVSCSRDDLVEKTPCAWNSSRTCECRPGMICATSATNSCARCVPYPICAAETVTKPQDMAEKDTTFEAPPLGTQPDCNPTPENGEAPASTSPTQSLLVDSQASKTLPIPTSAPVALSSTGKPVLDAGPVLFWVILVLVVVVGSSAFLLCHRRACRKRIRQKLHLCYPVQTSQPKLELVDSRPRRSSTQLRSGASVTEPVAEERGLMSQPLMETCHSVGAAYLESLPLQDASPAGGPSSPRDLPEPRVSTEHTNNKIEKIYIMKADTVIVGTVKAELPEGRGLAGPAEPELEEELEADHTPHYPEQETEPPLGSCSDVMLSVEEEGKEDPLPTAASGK
Method: Cell-ELISA. […] After overnight culture, the cells were fixed with 3.7% formalin in the culture medium at room temperature overnight. Incubation with a dilution of MAbs, secondary antibody and substrate was performed as described in the ELISA protocol except that 1% FBS in PBS was used for washing.

[3] = biological target: T1, IRTA2 extracellular domain-Fc fusion …; test: equilibrium ELISA (Friguet); remark: listed apart in the source
Method: as §1, §2

B1: F25 (antibody, IgG2a, V domains shown)
VH: EVQLQQSGPELVKPGTSVKMSCKASGYSFTGYFMNWMMQNHGKSLEWIGRINLYNGDTFYNQKFKDKATLTVDKSSNTVHMEFRSLASEDSAVYYCASSLYYFDYWGQGTTFTVSS
VL: DIVMTQSHKFMSTSVGDRVNITCKASQDVGTNVAWYQQKPGQSPKLLIYWASTRQTGVPDRFTGSGSGTDFTLTISNVQSEDLSDYFCQQYSSYPLTFGAGTKLELKR
notes: mouse hybridoma MAb, IgG2a, kappa; also called MAb F25; biotin-MAb F25
- Kd [1]: 1.2 nM
- binding result [2]: no binding (tested: ’0.2)
- Kd [3]: 1.2 nM
